Assay results taken from publication PMC8391708, “Anti-Inflammatory Effects of C1q/Tumor Necrosis Factor-Related Protein 3 (CTRP3) in Endothelial Cells” (Cells, 2021).

Target: the molecule itself
Assay: SDS-PAGE; recombinant CTRP3 run on SDS-polyacrylamide gels, stained with Coomassie; band at <100 kDa read as a trimer

B1: C1q/TNF-related protein 3 (CTRP3), recombinant (natural protein, human, UniProt Q9BXJ4 23-246, looked up)
chain: QDEYMESPQTGGLPPDCSKCCHGDYSFRGYQGPPGPPGPPGIPGNHGNNGNNGATGHEGAKGEKGDKGDLGPRGERGQHGPKGEKGYPGIPPELQIAFMASLATHFSNQNSGIIFSSVETNIGNFFDVMTGRFGAPVSGVYFFTFSMMKHEDVEEVYVYLMHNGNTVFSMYSYEMKGKSDTSSNHAVLKLAKGDEVWLRMGNGALHGDHQRFSTFAGFLLFETK
notes: C1q/TNF-related protein 3 (CTRP3), human, recombinant; also called C1q/Tumor Necrosis Factor-Related Protein 3; recombinant human CTRP3; source: baculovirus expression system in insect H5 cells
  stoichiometry N: 3
